Target: ccnd1_human CCND1 (UniProt P24385)
Sequence (P24385 whole entry): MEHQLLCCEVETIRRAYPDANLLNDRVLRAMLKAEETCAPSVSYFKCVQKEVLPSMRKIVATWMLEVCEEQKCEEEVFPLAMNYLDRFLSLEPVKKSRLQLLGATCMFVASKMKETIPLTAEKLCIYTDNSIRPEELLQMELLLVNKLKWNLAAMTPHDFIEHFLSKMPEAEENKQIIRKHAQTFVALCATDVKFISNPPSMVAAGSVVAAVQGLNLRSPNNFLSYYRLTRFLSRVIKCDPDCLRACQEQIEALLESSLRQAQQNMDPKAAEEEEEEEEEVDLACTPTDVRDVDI

Nucleoprotein (Human SARS coronavirus), P59595 S207A;P208A;A209L;R210G
effect of a mutation on the interaction: decreasing interaction strength

Reference: IntAct's records for PubMed 16431923
